Measured values as given in patent publication US20100120665A1.

Assays:
Assay in all cases: cell-based or functional assay
[1] = target: human complement factor D (human) (UniProt P00746)
[2] = target: mouse factor B (endogenous, in diluted whole mouse serum) (mouse) (UniProt P04186)
[3] = target: purified human factor B protein (Quidel, Catalog# A408) (human) (UniProt P00751)
Chain of UniProt P00751 (P00751 26-764): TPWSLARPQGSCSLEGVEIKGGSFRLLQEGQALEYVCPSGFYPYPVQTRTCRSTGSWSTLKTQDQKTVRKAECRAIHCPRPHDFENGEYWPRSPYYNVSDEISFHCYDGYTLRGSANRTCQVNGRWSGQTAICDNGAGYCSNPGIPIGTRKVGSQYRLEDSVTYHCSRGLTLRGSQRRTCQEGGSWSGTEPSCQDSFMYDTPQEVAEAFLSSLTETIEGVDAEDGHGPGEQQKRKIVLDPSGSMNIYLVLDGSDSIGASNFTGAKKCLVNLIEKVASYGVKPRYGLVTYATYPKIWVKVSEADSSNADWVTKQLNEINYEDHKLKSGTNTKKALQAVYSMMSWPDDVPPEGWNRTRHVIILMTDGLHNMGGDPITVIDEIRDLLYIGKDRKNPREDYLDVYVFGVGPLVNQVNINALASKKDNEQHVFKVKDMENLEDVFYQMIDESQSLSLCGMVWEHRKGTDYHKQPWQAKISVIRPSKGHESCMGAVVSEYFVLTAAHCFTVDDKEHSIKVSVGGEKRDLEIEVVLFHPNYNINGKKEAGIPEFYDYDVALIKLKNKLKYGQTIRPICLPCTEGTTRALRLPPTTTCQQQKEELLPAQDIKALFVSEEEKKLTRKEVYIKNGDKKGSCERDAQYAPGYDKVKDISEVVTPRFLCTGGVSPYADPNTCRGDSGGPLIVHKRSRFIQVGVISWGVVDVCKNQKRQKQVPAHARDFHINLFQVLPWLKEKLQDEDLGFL

Chain of UniProt P00746 (P00746 26-253 limits assumed): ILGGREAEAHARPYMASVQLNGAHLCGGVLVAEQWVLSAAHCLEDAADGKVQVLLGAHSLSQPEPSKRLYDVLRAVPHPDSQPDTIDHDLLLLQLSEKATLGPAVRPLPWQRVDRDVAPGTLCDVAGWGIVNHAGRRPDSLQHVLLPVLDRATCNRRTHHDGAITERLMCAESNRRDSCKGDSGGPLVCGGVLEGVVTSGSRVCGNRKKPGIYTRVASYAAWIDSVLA
Chain of UniProt P04186 (P04186 23-761): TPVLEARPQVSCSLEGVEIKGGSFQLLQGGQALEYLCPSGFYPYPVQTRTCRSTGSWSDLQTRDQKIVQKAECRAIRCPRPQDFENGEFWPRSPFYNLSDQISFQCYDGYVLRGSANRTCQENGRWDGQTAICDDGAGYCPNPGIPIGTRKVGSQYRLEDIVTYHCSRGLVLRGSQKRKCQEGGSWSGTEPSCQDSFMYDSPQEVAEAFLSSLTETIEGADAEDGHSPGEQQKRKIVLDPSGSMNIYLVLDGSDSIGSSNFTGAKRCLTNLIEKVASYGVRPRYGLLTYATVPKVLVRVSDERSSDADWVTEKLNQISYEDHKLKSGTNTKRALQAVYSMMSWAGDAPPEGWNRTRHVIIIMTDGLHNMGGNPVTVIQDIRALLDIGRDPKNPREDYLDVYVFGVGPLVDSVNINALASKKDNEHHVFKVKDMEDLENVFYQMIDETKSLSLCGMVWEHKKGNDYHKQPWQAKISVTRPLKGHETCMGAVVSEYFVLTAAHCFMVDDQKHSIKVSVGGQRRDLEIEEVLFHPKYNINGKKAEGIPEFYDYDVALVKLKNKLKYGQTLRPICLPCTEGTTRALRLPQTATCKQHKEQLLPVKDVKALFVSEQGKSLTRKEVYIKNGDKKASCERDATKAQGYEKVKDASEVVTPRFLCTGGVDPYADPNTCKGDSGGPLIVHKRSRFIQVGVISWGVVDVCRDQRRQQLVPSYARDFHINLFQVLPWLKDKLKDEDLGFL

isotype matched mouse control IgG (eBioscience, Catalog# 14-4732) (antibody)
hemolysis OD 405 nm; Control IgG 5 ng + Purified hfB protein 0.5 ug [1]: 0.428 OD 405 nm | hemolysis OD 405 nm; Control IgG 10 ng + Purified hfB protein 0.5 ug [1]: 0.361 OD 405 nm | hemolysis OD 405 nm; Control IgG 20 ng + Purified hfB protein 0.5 ug [1]: 0.441 OD 405 nm | hemolysis OD 405 nm; Control IgG 30 ng + Purified hfB protein 0.5 ug [1]: 0.392 OD 405 nm | hemolysis OD 405 nm; Control IgG 40 ng + Purified hfB protein 0.5 ug [1]: 0.426 OD 405 nm | hemolysis OD 405 nm; Control IgG 50 ng + Purified hfB protein 0.5 ug [1]: 0.43 OD 405 nm | hemolysis OD 405 nm; Control IgG 60 ng + Purified hfB protein 0.5 ug [1]: 0.416 OD 405 nm | hemolysis OD 405 nm; Control IgG 70 ng + Purified hfB protein 0.5 ug [1]: 0.395 OD 405 nm | hemolysis OD 405 nm; Control IgG 80 ng + Purified hfB protein 0.5 ug [1]: 0.387 OD 405 nm | hemolysis OD 405 nm; Control IgG 90 ng + Purified hfB protein 0.5 ug [1]: 0.347 OD 405 nm | hemolysis OD 405 nm; Control IgG 100 ng + Purified hfB protein 0.5 ug [1]: 0.397 OD 405 nm | hemolysis OD 405 nm; Control IgG 150 ng + Purified hfB protein 0.5 ug [1]: 0.426 OD 405 nm | hemolysis OD 405 nm; Control IgG 200 ng + Purified hfB protein 0.5 ug [1]: 0.347 OD 405 nm | hemolysis OD 405 nm; Control IgG 400 ng + Purified hfB protein 0.5 ug [1]: 0.506 OD 405 nm | hemolysis OD 405 nm; Control IgG 800 ng + Purified hfB protein 0.5 ug [1]: 0.538 OD 405 nm | hemolysis OD 405 nm; Control IgG 1600 ng + Purified hfB protein 0.5 ug [1]: 0.618 OD 405 nm | hemolysis OD 405 nm; Control IgG 2400 ng + Purified hfB protein 0.5 ug [1]: 0.588 OD 405 nm

monoclonal anti-human factor D antibody (Affinity Bioreagents, Catalog# GAU008-01-02)
hemolysis OD 405 nm; Anti-hfD mAb 5 ng + Purified hfB protein 0.5 ug [1]: 0.373 OD 405 nm | hemolysis OD 405 nm; Anti-hfD mAb 10 ng + Purified hfB protein 0.5 ug [1]: 0.432 OD 405 nm | hemolysis OD 405 nm; Anti-hfD mAb 20 ng + Purified hfB protein 0.5 ug [1]: 0.369 OD 405 nm | hemolysis OD 405 nm; Anti-hfD mAb 30 ng + Purified hfB protein 0.5 ug [1]: 0.235 OD 405 nm | hemolysis OD 405 nm; Anti-hfD mAb 40 ng + Purified hfB protein 0.5 ug [1]: 0.227 OD 405 nm | hemolysis OD 405 nm; Anti-hfD mAb 50 ng + Purified hfB protein 0.5 ug [1]: 0.165 OD 405 nm | hemolysis OD 405 nm; Anti-hfD mAb 60 ng + Purified hfB protein 0.5 ug [1]: 0.126 OD 405 nm | hemolysis OD 405 nm; Anti-hfD mAb 70 ng + Purified hfB protein 0.5 ug [1]: 0.103 OD 405 nm | hemolysis OD 405 nm; Anti-hfD mAb 80 ng + Purified hfB protein 0.5 ug [1]: 0.078 OD 405 nm | hemolysis OD 405 nm; Anti-hfD mAb 90 ng + Purified hfB protein 0.5 ug [1]: 0.058 OD 405 nm | hemolysis OD 405 nm; Anti-hfD mAb 100 ng + Purified hfB protein 0.5 ug [1]: 0.061 OD 405 nm | hemolysis OD 405 nm; Anti-hfD mAb 150 ng + Purified hfB protein 0.5 ug [1]: 0.035 OD 405 nm | hemolysis OD 405 nm; Anti-hfD mAb 200 ng + Purified hfB protein 0.5 ug [1]: 0.029 OD 405 nm | hemolysis OD 405 nm; Anti-hfD mAb 400 ng + Purified hfB protein 0.5 ug [1]: 0.022 OD 405 nm | hemolysis OD 405 nm; Anti-hfD mAb 800 ng + Purified hfB protein 0.5 ug [1]: 0.015 OD 405 nm | hemolysis OD 405 nm; Anti-hfD mAb 1600 ng + Purified hfB protein 0.5 ug [1]: 0.014 OD 405 nm | hemolysis OD 405 nm; Anti-hfD mAb 2400 ng + Purified hfB protein 0.5 ug [1]: 0.049 OD 405 nm

mouse monoclonal antibody against human factor B (Quidel, Catalog# A227)
hemolysis OD 405 nm; Anti hfB mAb 0.4 ug + Mouse serum 50 ul (1:6 Diluted) [2]: 0.074 OD 405 nm | hemolysis OD 405 nm; Anti hfB mAb 0.4 ug + Purified hfB Protein 0.5 ug [3]: 0.051 OD 405 nm | hemolysis OD 405 nm; Anti hfB mAb 0.8 ug + Purified hfB Protein 0.5 ug [3]: 0 OD 405 nm
